In patent publication US20040048377A1 (published 2004):

B1: mouse Grg4 (other, UniProt Q62441 1-773, looked up)
chain: MIRDLSKMYPQTRHPAPHQPAQPFKFTISESCDRIKEEFQFLQAQYHSLKLECEKLASEKTEMQRHYVMYYEMSYGLNIEMHKQAEIVKRLNAICAQVIPFLSQEHQQQVVQAVERAKQVTMAELNAIIGQQLQAQHLSHGHGLPVPLTPHPSGLQPPAIPPIGSSAGLLALSSALGGQSHLPIKDEKKHHDNDHQRDRDSIKSSSVSPSASFRGSEKHRNSTDYSSESKKQKTEEKEIAARYDSDGEKSDDNLVVDVSNEDPSSPRGSPAHSPRENGLDKTRLLKKDAPISPASVASSSSTPSSKSKELSLNEKSTTPVSKSNTPTPRTDAPTPGSNSTPGLRPVPGKPPGVDPLASSLRTPMAVPCPYPTPFGIVPHAGMNGELTSPGAAYAGLHNISPQMSAAAAAAAAAAAYGRSPVVGFDPHHHMRVPAIPPNLTGIPGGKPAYSFHVSADGQMQPVPFPPDALIGPGIPRHARQINTLNHGEVVCAVTISNPTRHVYTGGKGCVKVWDISHPGNKSPVSQLDCLNRDNYIRSCRLLPDGRTLIVGGEASTLSIWDLAAPTPRIKAELTSSAPACYALAISPDSKVCFSCCSDGNIAVWDLHNQTLVRQFQGHTDGASCIDISNDGTKLWTGGLDNTVRSWDLREGRQLQQHDFTSQIFSLGYCPTGEWLAVGMENSNVEVLHVTKPDKYQLHLHESCVLSLKFAHCGKWFVSTGKDNLLNAWRTPYGASIFQSKESSSVLSCDISVDDKYIVTGSGDKKATVYEVIY
notes: 35S-labelled, made in TNT rabbit reticulocyte lysate for the immuno-precipitation; expressed from a vector in COS-7 cells in the reporter assays; also called mGrg4

How the values were obtained:
[1] = target: T1, Nkx2.2ΔTN (Nkx2.2 with the TN domain deleted, Δaa 2-26) (chick); experiment: immuno-precipitation, 35S-labelled Grg4, Nkx protein on antibody-proteinA-sepharose
T1 construct: range 1-1;range 27-C-terminus; Deletion construct, immobilised on antibody-proteinA-sepharose in the immuno-precipitation; also called cNkx2.2^?TN; NKx2.2^?TN
Experimental: (§1) Immuno-precipitation (IP) assays using rabbit Nkx2.2 (Ericson et al., 1997) and Nkx6.1 antibodies (Jensen et al., 1996) were performed as described by Current protocols 2nd ed. ³⁵S-labelled mGrg4 was synthesized using the TNT coupled rabbit reticulocyte lysate. Electric mobility shift assays were performed as described (Jorgensen et al., 1999). Briefly, the isolated homeodomains of Nkx6.1, Nkx6.2, Nkx2.2 and Nkx2.9HD were synthesized using the TNT coupled rabbit reticulocyte lysate and tested for their binding specificity in vitro using ³²P-labelled double stranded DNA oligonucleotides containing defined Nkx6.1 (Jorgensen et al., 1999) or Nkx2.1 binding sites (Damante et al., 1996).
(§2) An immuno-precipitation assay was then used to test if mammalian Gro/TLE family members could also bind to Nkx proteins, and if the TN domain is required for this interaction. […] Carboxy-terminal directed antibodies that recognise both full-length proteins as well as truncated variants lacking the TN domain were used (Ericson et al., 1997; Jensen et al., 1996). […]
(§3) Deletion of the TN domain in Nkx2.2 and Nkx6.1 reduced the interaction with Grg4 (9-fold for Nkx2.2ATN and 5-fold for Nkx6.1ΔTN, compared to the full-length proteins). […] No significant interaction was detected between Grg4 and antibody-proteinA-sepharose complexes.

mouse Grg4 = target: B1; experiment: as above
Experimental: as §1, §2, §3

Row | fold reduction of the interaction with Grg4 compared to the full-length protein [1] [fold] | binding result (mouse Grg4) | Binder
1 | 9 | – | B1
2 | – | binds | Nkx6.1 (full-length, rNkx6.1) (other, rat, UniProt O35762 1-365, looked up, mature; Full-length protein made in TNT rabbit reticulocyte lysate; 35S-labelled in the GST co-precipitation, immobilised on antibody-proteinA-sepharose in the immuno-precipitation) MLAVGAMEGPRQSAFLLSSPPLAALHSMAEMKTPLYPAAYPPLPTGPPSSSSSSSSSSSPSPPLGAHNPGGLKPPAAGGLSSLGSPPQQLSAATPHGINDILSRPSMPVASGAALPSASPSGSSSSSSSSASATSASAAAAAAAAAAAAAASSPAGLLAGLPRFSSLSPPPPPPGLYFSPSAAAVAAVGRYPKPLAELPGRTPIFWPGVMQSPPWRDARLACTPHQGSILLDKDGKRKHTRPTFSGQQIFALEKTFEQTKYLAGPERARLAYSLGMTESQVKVWFQNRRTKWRKKHAAEMATAKKKQDSETERLKGTSENEEDDDDYNKPLDPNSDDEKITQLLKKHKSSGGSLLLHASEAEGSS
